# Patent publication US20230183661A1, “BICOMPATIBLE PEPTIDEBIOCOMPATIBLE PEPTIDES FOR INHIBITION OF AGGREGATION OF B-AMYLOID PROTEIN” (Catholic University Industry Academic Cooperation Foundation, priority 2017, published 2023)
# Entries after “also recorded” stand apart in the source; their conditions may differ.
# What was measured:
# Aβ [1] = molecular target: T1, Aβ (Homo sapiens, UniProt P05067); assay: Co-IP assay of SOD1 truncated peptides co-overexpressed with Aβ in nerve cells (N2a); type: binding; parameters: Aβ, and generally a peptide consisting of 36 to 43 amino acids; expressed in transfected cells; host or cells: N2a (murine neuroblastoma); details: for Binding strength with β-amyloid / Acting with β-amyloid: Co-IP; for Binding strength with β-amyloid: relative score without scale; for Binding strength to Aβ: FIG. 3; for Acting with β-amyloid: peptide and Aβ overexpressed in N2a; for Binding to Aβ: FIG. 3, Co-IP
# Experimental: The transfected HEK293T, H4 and N2a cells were lysed in a NETN buffer and incubated on ice for 1 hour. This solution includes 100 mM of NaCl, 1 mM of EDTA, 20 mM of Tris-HCl (pH 8.0), 0.5% (v/v) NP-40 and protease inhibitors. Among the protease inhibitors, aprotinin and leupeptin have a concentration of 2 μg/ml, and PMSF has a concentration of 0.1 mM.
# 1 mg of a protein extract and 1 μg of a primary antibody were mixed and cultured at 4° C. for 12 hours. The mixture was mixed with Protein G Sepharose 4 Fast Flow (GE Healthcare), and cultured at 4° C. for 1 hour, yielding a binding immune complex through centrifugation. A sample buffer was added to the precipitated Sepharose and boiled, and the buffer includes 44 mM Tris-HCl (pH 6.8), 2% SDS, 144 mM β-mercaptoethanol, 10% (v/v) glycerol, and 0.004% (v/v) bromophenol blue.
# The immunoprecipitated sample was subjected to 12% SDS-polyacrylamide gel electrophoresis (SDS-PAGE) to transfer proteins to a membrane, and then immunoblotting with a FLAG antibody, a SOD1 antibody and a GFP antibody.
# To identify a β-strand exposed at a protein surface and inhibiting Aβ protein aggregate formation through interactions with Aβ, all types of truncated fragments of SOD1 consisting of eight β-strands (β1 to β8) were systemically designed and constructed (FIG. 2). FIG. 2 schematically illustrates SOD1 and the β1-to-β8 structure of SOD1, and the sequences of Peptides 1 to 6.
# To determine a determinant binding to Aβ, various peptides from which a specific β-strand was removed were constructed. Peptide 2 was prepared by removing a β-turn linked to the β2 strand in Peptide 1. Peptides 1 to 6 and Aβ were overexpressed in nerve cells (N2a), and then a Co-IP assay was performed.
# nerve cells (N2a) [2] = assay: Cytotoxicity by nuclear morphology through IFA; type: cell-based, mouse; details: overexpressed in N2a, FIG. 5
# Experimental: (§1) Twenty-four hours after the transfection, N2a cells were incubated in a 4% paraformaldehyde fixation solution for 15 minutes. The cells were washed with PBS three times, and incubated in a 50 mM NH4Cl/PBS quenching solution for 10 minutes.
# (§2) Subsequently, the cells were washed with PBS three times, and incubated in a 0.1% Triton X-100/PBS solution for 5 minutes. The cells were then treated and incubated with 2% FBS/blocking buffer at room temperature for 1 hour. The cells were then treated and incubated with FLAG antibodies diluted 1/100 at room temperature for 2 hours, washed with PBS three times, and then treated and incubated with a goat anti-mouse Alexa Fluor®-red 594 dye.
# (§3) The sample was washed with PBS three times, and mounted on a glass slide using a FluoroGuard Antifade reagent (Bio-Rad Laboratories, Inc.). A fluorescent image was obtained using a confocal laser scanning microscope (Zeiss LSM 510 Meta, Carl Zeiss AG), and processed using Adobe® Photoshop®, and a fluorescence signal intensity was measured using a ZEN 2009 Light Edition software program.
# To confirm cytotoxicity of the peptide (NABi) of the present invention, the peptide of the present invention was overexpressed in nerve cells (N2a), and a nuclear morphology was observed through IFA. […]
# nerve cells (N2a) [3] = assay: Self-aggregate formation of peptide overexpressed in nerve cells (N2a), immunofluorescence; type: cell-based, mouse
# Experimental: as §1, §2, §3
# To identify whether a self-aggregate of the peptide (NABi) of the present invention was formed, the peptide of the present invention was overexpressed in nerve cells (N2a), and then measured by an immunofluorescence method.
# nerve cells (N2a) [4] = assay: Cytotoxicity through IB of neural cell death-associated proteins; type: cell-based, mouse; details: peptide overexpressed in N2a, FIG. 6
# Experimental: (§4) Cells were lysed in an RIPA buffer and incubated at 4° C. for 30 minutes. The RIPA buffer includes 2 μg/mL of a composition including 0.15 M NaCl, 0.5% (v/v) sodium-deoxycholate, 0.1% (v/v) SDS, 0.05 M Tris-HCl (pH 8.0), 1% (v/v) NP-40, aprotinin and leupeptin, 1 mM PMSF and a phosphatase inhibitor.
# (§5) The phosphatase inhibitor included 1 mM Na3VO4 and 1 mM NaF. A protein concentration was measured by a Bradford assay (Bio-Rad Laboratories). The sample was separated in a 12% or 15% SDS-polyacrylamide gel.
# (§6) The cells were lysed in a lysis buffer (Catalog No. 9803, Cell Signaling Technology), and the sample was separated in a 13% blue gel according to the manufacturer's protocol (MitoSciences Inc.).
# (§7) Proteins were transferred to Protran® nitrocellulose membranes (Sigma-Aldrich Co. LLC), and then the membranes were incubated in a 5% non-fat dried milk/TBST solution at room temperature for 1 hour. […]
# (§8) The membranes were incubated with a primary antibody at room temperature for 1 hour, and incubated again with a secondary antibody for 1 hour. The antigen-antibody complex was detected using an enhanced chemiluminescence kit (Santa Cruz Biotechnology, Inc.). […]
# For the control, normal nerve cells (N2a) were treated with STS to induce apoptotic cell death (apoptosis positive control), and then the expression and activity of a neural cell death-associated protein were evaluated.
# Aβ protein aggregate = molecular target: T2, Aβ protein aggregate (Homo sapiens, UniProt P05067); assay: Aβ aggregation inhibition in nerve cells through IFA; type: cell-based; details: peptide and Aβ expressed, FIG. 7; Aβ-only control about 50% cells with aggregates
# T2 construct: Aβ, and generally a peptide consisting of 36 to 43 amino acids; expressed in transfected cells; host or cells: N2a (murine neuroblastoma)
# Experimental: as §1, §2, §3
# To confirm the inhibition of Aβ aggregation by the peptide (NABi) of the present invention, the peptide of the present invention and Aβ were expressed in nerve cells, and then an Aβ protein aggregate was quantitatively analyzed through IFA. […]
# Aβ [5] = molecular target: T1, Aβ; assay: Aβ aggregate formation under aggregate formation conditions, measured through IB; type: biochemical; details: FIG. 8
# Experimental: 9. Formation of β-Amyloid Aggregate A monomer recombinant Aβ42 (Catalog No. 03-111, Invitrogen™ Co.) peptide was added to 1,1,1,3,3,3-hexafluoro-2-propanol (HFIP, Sigma-Aldrich Co. LLC) and stored in a −80° C. freezer, and the HFIP was evaporated and removed immediately before use. For the Aβ aggregate formation, 20 μM of Aβ peptides were dissolved in a 0.1 M HEPES/TBS buffer or 0.01 M HCl/TBS buffer and incubated at 37° C. for 14 days. The TBS buffer included 50 mM Tris-HCl and 150 mM NaCl.
# To confirm the inhibition of Aβ aggregation by the peptide (NABi) of the present invention, the peptide (NABi) of the present invention and Aβ were cultured under i) a 0.1 M HEPES/TBS (pH 7.4) condition or ii) a 0.01 M HCl/TBS condition, and then the degree of Aβ aggregate formation was measured through IB.
# Under an Aβ aggregate formation condition, for example, i) a 0.1 M HEPES/TBS (pH 7.4) condition or ii) a 0.01 M HCl/TBS condition, the control was subjected to IB in order to measure a degree of Aβ aggregate formation.
# nerve cells (H4 cells) [6] = assay: Neural cell death through PI staining; type: cell-based; details: peptide and Aβ overexpressed in H4 cells, FIG. 10
# Excerpt: Approximately 40 to 50% of the H4 cells were positive for a neuron marker (neuron-specific enolase; NSE). Since the H4 cells were sensitive to an Aβ aggregate, and neural cell death resulted from the Aβ aggregate, they were used in neural cell death analysis.
# For the control, Aβ was overexpressed in nerve cells (H4 cells).
# nerve cells (H4 cells) [7] = assay: Neural cell death through nuclear morphology; type: cell-based; details: peptide and Aβ overexpressed in H4 cells, versus Aβ-only control, FIG. 11
# Excerpt: For the control, Aβ was overexpressed in the nerve cells (H4 cells).
# nerve cells (H4 cells) [8] = assay: Neural cell death through AnnexinV staining at different peptide expression levels; type: cell-based; details: all expression levels of the peptide, H4 cells with Aβ, FIG. 12
# Excerpt: An expression level of the peptide of the present invention was differentially adjusted.
# nerve cells (H4 cells) [9] = assay: Neural cell death-associated proteins through IB at different peptide expression levels; type: cell-based; details: peptide and Aβ expressed in H4 cells, FIG. 13 lanes 6 to 8
# Experimental: as §4, §5, §6, §7, §8
# For the control, after Aβ was expressed in nerve cells (H4 cells), the expression and activity of a neural cell death-associated protein were measured through IB.
# Aβ [10] = molecular target: T1, Aβ; assay: FRAP assay of Aβ mobility in nerve cells (N2a); type: cell-based; parameters: Aβ, and generally a peptide consisting of 36 to 43 amino acids; expressed in transfected cells; host or cells: N2a (murine neuroblastoma); details: FIG. 9
# Experimental: Fluorescence recovery after photobleaching (FRAP) is a technique for detecting the mobility of a fluorescence-tagged molecule in living cells. N2a cells were cultured in a 35 mm cell culture dish at a density of 5×10^4 cells/dish, and after 12 hours, a target plasmid was transfected into the cells.
# Thirty six hours after the transfection, whether an aggregate was formed was analyzed by a laser confocal microscope. A specific area (white box part) was photobleached 15 times using 594 nm laser, and then fluorescence recovery in the photobleached part was measured at an interval of 3 seconds.
# To confirm the inhibition of Aβ aggregation by the peptide (NABi) of the present invention, the peptide of the present invention and Aβ were overexpressed in nerve cells (N2a), a predetermined region was repeatedly exposed to a high intensity laser beam through a FRAP assay. Afterward, an Aβ protein was removed from the laser beam-exposed region, and then fluorescence recovery according to migration of peripheral Aβ proteins was measured in real time.
# For the control, after Aβ was overexpressed in nerve cells (N2a), fluorescence recovery according to migration of peripheral Aβ proteins was measured in real time through a FRAP assay.
substance,measurement,setting,value
"Peptide 4: truncated fragment of SOD1, β1-to-β3 sequence, 39 aa (SEQ ID NO: 2) (ATKAVCVLKGDGPVQGIINFEQKESNGPVKVWGSIKGLT; peptide 2)",Binding strength with β-amyloid,Aβ [1],1
same,Binding strength to Aβ,Aβ [1],bound to Aβ at a similar strength
"G93A: SOD1 mutant in which the 93th amino acid glycine was changed to alanine; aggregation and apoptosis comparator [Peptide G93A, reference compound]",Cells with condensed and fragmented nuclei,nerve cells (N2a) [2],approximately 50%
"Peptide 6: truncated fragment of SOD1 consisting of β-strands β5 to β8, 74 aa",Acting with β-amyloid,Aβ [1],Not acting
same,Binding strength with β-amyloid,Aβ [1],0
same,Binding to Aβ,Aβ [1],did not bind to Aβ
"Peptide 3: truncated fragment of SOD1 consisting of β-strands β4 to β6, 75 aa",Acting with β-amyloid,Aβ [1],Not acting
same,Binding strength with β-amyloid,Aβ [1],0
same,Binding to Aβ,Aβ [1],did not bind to Aβ
"Peptide 5: Natural Amyloid β Binder and Amyloid β aggregation inhibitor; β1-to-β5 strand sequence of SOD1, 90 aa (SEQ ID NO: 3 or 4)",Self-aggregate formation,nerve cells (N2a) [3],did not form a self-aggregate
same,Nuclear morphology,nerve cells (N2a) [2]; compared with normal N2a control,normal nuclear morphology
same,"Truncated forms of PARP1, Lamin A/C",nerve cells (N2a) [4],not detected either
same,"Active caspase-3, active caspase-8, active caspase-9 and γ-H2AX",nerve cells (N2a) [4]; STS as apoptosis positive control,not detected
same,Nerve cells in which no Aβ protein aggregate was observed,Aβ protein aggregate,≥ 80%
same,Reduction of Aβ aggregates compared to the control,Aβ [5]; i) 0.1 M HEPES/TBS (pH 7.4),1/10
same,Reduction of Aβ aggregates compared to the control,Aβ [5]; ii) 0.01 M HCl/TBS,⅓
same,Reduction of the number of PI-stained apoptotic cells compared to the control,nerve cells (H4 cells) [6],approximately ⅓
same,Morphological changes in nuclei (chromosomal condensation and fragmentation),nerve cells (H4 cells) [7],less morphological changes in nuclei
same,Neural cell death by AnnexinV staining,nerve cells (H4 cells) [8],neural cell death was inhibited
same,"Detection of truncated caspase-3, truncated PARP and truncated Lamin A/C",nerve cells (H4 cells) [9],greatly reduced
same,Binding strength with β-amyloid,Aβ [1],1
same,Binding strength to Aβ,Aβ [1],bound to Aβ at a similar strength; also recorded: strongly bound to Aβ
same,Binding to Aβ,Aβ [1],bound to Aβ
same,Recovery of fluorescence removed by photobleaching,Aβ [10]; within 20 seconds,50%
same,Recovery of fluorescence removed by photobleaching,Aβ [10]; within 90 seconds,75%
